# Reference: publication PMC7935764 (Structure (London, England : 1993), 2020)
# B1: His6-FLAG-SUMO (HFS)-tagged CTD^220-270, wild type (domain or fragment)
# chain: IQNFRVYYRDSRDPVWKGPAKLLWKGEGAVVIQDNSDIKVVPRRKAKIIRD
# B2: CTD^220-270 (domain or fragment)
# chain: IQNFRVYYRDSRDPVWKGPAKLLWKGEGAVVIQDNSDIKVVPRRKAKIIRD
# Assays:
# [1] = target: IN CCD^F185K (HIV-1 (NL4-3)); assay: AUC
# [2] = target: HIV-1 integrase IN^F185H,L242A (HIV-1 (NL4-3)); assay: SEC-MALS
# [3] = target: HIV-1 integrase IN^F185H,L242A (HIV-1 (NL4-3)); assay: AUC
# [4] = target: HIV integrase CTD CTD (Human immunodeficiency virus 1) (UniProt O93215); assay: NMR; conditions: cited from earlier work
# [5] = target: IN CCD^F185K (HIV-1 (NL4-3)); assay: SEC-MALS + AUC + other: SEC-SAXS
# SEC-MALS = target: the molecule itself; assay: SEC-MALS
# SEC-SAXS = target: the molecule itself; assay: SEC-SAXS
molecule,measurement,setting,value
HFS-IN(CTD)^220-280(L242A) (from UniProt P12497 221-281) (domain or fragment),KD without BI-224436,[1],> 1000 µM
"HIV-1 integrase IN^F185H,L242A (enzyme)",stoichiometry N,[2],2
same,stoichiometry N,[3],2
HIV integrase CTD CTD (from UniProt O93215),Kd,[4],1 µM
IN CCD^F185K (domain or fragment),stoichiometry N,[5],2
B1,stoichiometry N,SEC-MALS,2
B2,stoichiometry N,SEC-SAXS,2
